From patent US20110091460A1

Target: interleukin 13 receptor (IL13R) (human)
Assay: cell-based or functional assay

Substance: DTIL13 (ligand)
- IC50, inhibition of Calu-3 cell growth (3H-thymidine proliferation assay, 72 h): 3.1 nM
- IC50, inhibition of HT-29 cell growth (3H-thymidine proliferation assay, 72 h): 95 nM
- IC50, inhibition of PC-3 cell growth (3H-leucine proliferation assay, 72 h): 0.038 nM
- IC50, killing of DU-145 cells (3H-thymidine proliferation assay, 72 h): > 100 nM
- IC50, killing of U87 MG cells (3H-thymidine proliferation assay, 72 h): 10 nM
- IC50, killing of U118 cells (3H-thymidine proliferation assay, 72 h): 2 nM
